The nature of this series: label from the status in PepcDB records.
In the case of “MADSKEKLFSDFPAVSTEQWMEKITADLKGADFEKKLVWRTNEGFKVKPFYRQEDLEGLKTTEGLPGEFPYVRGTKKNDNTWFVRQEIKVECPKEANAKALDILNKGVDSLGFYVKKKDLSPEYIETLLNDICAECIELNFSTCQGHTVELAKLLVAYFQKKGYDLTKLQGSVNYDPMGKMMVKGKDLSNFITTAKELVEVLAPLPKFRCICVNAIELNNAGSYISQELGYALAWGNEYLSKLVEAGVPAALAAKKIKFNFGISSNYFLEIAKFRAARMLWADIVKEYHPQCNRQPECPNKAEDGTCLCACKMVAHAETSTFNLTLFDAHVNLLRTQTEAMSAALAGVNSITVTPFDKTYETPDDFSERIARNQQLLLKEECHFNKVVDPAAGSYFIENLTISIATQAWELFLKVEDEGGMLEAVKAGKVQEAINASNKARHDSVSKRKEILLGTNQYPNFNEKAGEKAPVEAKCCCGGNHDSCEKPFATLNFDRAASQFEALRLQTEKSGKRPKAFMLTIGNLAMRQARAQFSCNFLACAGYEVIDNLGFPTVEAGVEAAMKAGADIVVICSSDDEYAEYAIPAFKALDGRAIFIVAGAPACMEELKAAGIENFIHVRVNVLDTLKEYNAKLGIK”, the protein production entry is reported as “failed”. For “MADTGDTAGAKKNGDSTFTVLVAAFANLGIAVAKAVAGVISGSSAMLSEAAHSVADTVTEVLLLTSLKRSVRPADEDHPLGHGPERYIWALLAAVATFVGGAVFSLYDGIHTLTHGEDLGDPLVSYIVLAVAFVLEGYSLRTGLRQVRGEAAHHRVSFGRYLRRTPDTAVKAVVMEDSAALAGLLLAAGGLLGGQLTGSGVWDAVASLCIGALLLYVAWVLGRSNAEFLVGRPLSRSVRDRIRAELVADEHIEAVLELTTLVQGPREALVAAKVDFRDVSTAAQIEWACERAEQRLREEFPIVRRVYLDPTPGFAQRRTEGLNPWP” the value was “failed”; for “MADTNYIRDLSLHRNNHVLYVKILSIWDNQSMIFGTPTTMILYDVKGTRIDTRVPWGDYLNNFKPSLFEGKWYYIADFRLKRATSIPKYSSFNYEIEFMWHTKMWPVSDRSDESSLQFIHADEIESESEDYVTDAIGVISSVSTEARFPYVCREGETDYEARYVTFTIRDNLDRIITCVARGSACESFLTKFYRLIGMKTYNYEPITTVLRFFRASNFKGSKALISEHGCSRIFIEESFPDFDVTVYINWFACEDDGSVEGKIEYFVEN”, “failed”.

With “MADWLIGIIMGAVEGLTEFLPVSSTGHMILTGHLLGFDDERAKVFEVVIQLGSILAVVVIFWKRLWSLVGIGKVTDGPSLNLLHIIIGMIPAGVLGVLFHSAIKEVLFGPGPVVISLVAGGILMIVAEKFSKPSTARTLDEITYKQAFTIGMFQCLALWPGFSRSGSTISGGLLARVSHTAAAEYTFILAVPMMVAASGLDLIKSWDILSAADIPLFATGFITAFVVAMLAIVSFLKLLSRVKLTPFAYYRFILAAVFYFFIM”, the protein production result is “failed”. Under “MADWVTGKVTKVQNWTDALFSLTVHAPINPFTAGQFTKLGLEIDGERVQRAYSYVNAPDNPNLEFYLVTVPQGKLSPRLAALKPGDEVQVVSDASGFFVLDEVPDCETLWMLATGTAIGPYLSILQYGQDVARFKNLVLVHAARFAADLSYLPLMLELQQRYEGKLRIQTVVSRENVPGSLTGRVPALIENGELEKAVGLPMDKETSHVMLCGNPQMVRDTQQLLKETRQMTKHLRRRPGHMTAEHYW” stands “not failed”; under “MAEASATEPERPDQESADDAVIATRALTKRYRGGQLAVDGLDLTVPAGSVFGFLGPNGSGKTTTIRMLMGLIEPTSGSARVLGRPMPRAARAVLPRVGALIEGPALYGFLSGRDNLLRYDAADPTADPRTRRERVAAALDRVGLAAAGGKKAKAYSLGMKQRLGLAAALLQPRRLLVLDEPTNGLDPQGMREIRSLVRELASDGTTVFLSSHLLDEIEQVCTHAAVMAQGRLITQGAVADLAAGARGRLVVTTPDAGDAARVLKEQGAADVVVDGDRVTAEPPERDLAEVNAALVAARVRVRGFVVERASLEDAFVALTGEGFDVAG”, “failed”; under “MAEAVLENVNVPAVVSKDECIYCFESPYNEPLALNASPKHSLNICLNCFQATCNRHVPLHIRVTEYACDTIHSNYLTIAKVEKPKQENVEENNNNKKIKLQVIETSEDDTHNTIWSLQRFNGENVPRTVLSKSTDSDISSTALEKIEKILKAKSQDFEDKKNSWVLEISTCPHTENFQIPSKPENTVNLNQCSSCDLTQNLWLCLHCGNIGCGREQIGIDGHSHALDHYRSNNNHPLAIKLGSLSSSTYDLYCYACDDETRFPDNVNLGSALQIYGINIQEKIADEKTLVQLQVEQNENWQFRMVDSSGKEFEKLSASKNYGCGLINLGNSCYLNSVIQSLVNGGVPNWSLDFLGSKFPLDVVYPDNNLKCQWIKLLNAMKCEPELYPNGIKPTTFKKCIGQNHQEFSSNRQQDAMEFLTFLLDLLDKKFFSSSSSGIPNPNDLVRFMMEDRLQCNICGKVKYSYEPTEAIQIPLEENDEPQDMLERIKAYFEGQTIEFKCANCKEKVTANKKPGFKSLPQTLILNPIRIRLQNWIPVKTSNELSLPGLIDRDDMLDVSSYLSQGFDPQTENLLPDEDENRSSFTPNQCSISQLIEMGFTQNASVRALFNTGNQDAESAMNWLFQHMDDPDLNDPFVPPPNVPKKDKREVDEVSLTSMLSMGLNPNLCRKALILNNGDVNRSVEWVFNNMDDDGTFPEPEVPNEEQQQKKDLGYSTAKPYALTAVICHKGNSVHSGHYVVFIRKLVADKWKWVLYNDEKLVAADSIEDMKKNGYIYFYTRC”, “failed”. Under “MAEEQAATAMETSAVEKQPETTTEAEAPSLTTKRMVVAIDESDSSFYALQWVIDHFSNLLLTTAAAEAESGMLTVIHVQSPFNHFAAFPAGPGGATAVYASSSMIESVKKAQQETSAALLSRALQMCRAKQIRTETLVLEGEAKEMICEAVEKMHVDLLVVGSRGLGKIKRAFLGSVSDYCAHHANCPILIVKPPKEMTK” stands “failed”; under “MAEERSLNGEATGQDDESFFDSDQQGDDGKSTELNQKIGDLESQNQELARDNDAINRKIESLTAEIEELRGAESKAKRKMGEMEREIDKSDEERKVLEAIASRASELETEVARLQHELITARTEGEEATAEAEKLRSEISQKGGGIEELEKEVAGLRTVKEENEKRMKELESKLGALEVKELDEKNKKFRAEEEMREKIDNKEKEVHDLKEKIKSLESDVAKGKTELQKWITEKMVVEDSLKDSEKKVVALESEIVELQKQLDDAEKMINGLKNVVEEPLNGIEFKSWSPNVTAVGSGGAVAAVAVAVAGAAVVCYIYHSRRV”, “failed”. Under “MAEGKDRNFVTALARGLDVLRSFRPGEVLLTNTDLSERTGLPKPTVSRLTYTLCQLGYLVQDRQSGAYRLGVGVLQLGMGVLAGLDICDRAAEVLRGLRTGANPYITAALGEVHRAEVIYVAVSRSRENVSLSMHVGSRLPLFRSAIGRAILVGMEAEEREAAIAAGMRDLGVPEAELRSQIARAVEEYAVRGYCTGYGDWRADVNGIAVPVLSLGGARLHGLNLGGPSFHVTQEELERVFAPLLIEAGRSLGMVP” stands “failed”. On to “MAEICLITGTPGSGKTLKMVSMMANDEMFKPDENGIRRKVFTNIKGLKIPHTYIETDAKKLPKSTDEQLSAHDMYEWIKKPENIGSIVIVDEAQDVWPARSAGSKIPENVQWLNTHRHQGIDIFVLTQGPKLLDQNLRTLVRKHYHIASNKMGMRTLLEWKICADDPVKMASSAFSSIYTLDKKVYDLYESAEVHT”, for which the protein production result is “not failed”.

As for “MAEIKHYQFNVVMTCSGCSGAVNKVLTKLEPDVSKIDISLEKQLVDVYTTLPYDFILEKIKKTGKEVRSGKQLAREVILAVHGMTCSACTNTINTQLRALKGVTKCDISLVTNECQVTYDNEVTADSIKEIIEDCGFDCEILRDS”, the protein production result is recorded as “not failed”. As to “MAEIQFSKGVAETVVPEVRLSKSKNGQSGMAKFYFLEPTILAKESTDDITGMYLIDDEGEIITREVKGKFINGRPTAIEATVILNSQPEWDRFMRFMERYGAENGLGFSKSELEHHHHHH”, the protein production result was “not failed”. As to “MAEKISVKTADTNADEIDLGRLLGTLLDNRWLIIGVTAIFLIFGILYATLATPIYKADALVQVEKNSSNKLINDITSMLPDAKPESAAEVELITSRMIIGKTVNDLALDINVQQNYFPFFGKGIARLTGATKGVLAVSRLEVPDSWKDEPIILTVTDNKNYSISAGDAVRFEGQVGRLERHDGMTLLISDIAADEGTTFSIKKLNQLTAINNILKTLTVADRGKDTGVLALSLEGEDPILTNKILNSISENYLQQNVERKSEESGRSLEFLKEQLPNVRSILDEADNKLNIFRQKNESVDLSLEAKSVLETMVALEAQLNELTFKEAEISKLYTKEHPAYRALLEKRKTLEEEKEKINKRVGAMPKTQQEIIRLTRDVKAGQEVYMQLLNKQQELSINKASTVGNVRIIDSAVVQLRPVKPEKVFIVLLSIILGGLLSVSFVLIRTILHKGIESPEQLAELGISVYASVPLSAWQQKKDRALLGKGKRGNTRSTELLAVGNPADLAIEAIRSLRTSLHFAMMEAKNNVLMISGASPAIGKTFVSANLGAVIAQSGQRVLIVDCDMRKGYAHELMGCQGTDGLSDILSGQITTDKSIRKTAVENMDFIPRGQIPPNPSELLMHSRFSQFIDWATKNYDIVLLDTPPILAVTDAAVISRHAGTSLLVARFEVNTLKEIEVSIRRFEQNGTEIKGVILNAIVKRAASYYSYGNYDYYSYEYKSDK”, the protein production entry was “failed”. For “MAEKKWFDKVLSKWQYEPIQVFMRHLQSAEMDLSAIAVAYYLILTAFPLIVIAANIFPYLNIDIADLLRLMKQNLPKDIFRPASAIVENIFSKPSGSVLGVATLTGLWTMSRSLTSLQKAINKAYGASQHRDFFIGHLVGLLTSLIILFLLAFALIFSIFSKAAIQVLDKHYHLSDNITTIFLLLIQPITVLIIFVGLMLLYFLLPNVKIKKIRYILPGTLFTSFVMTFLSNLVGNYVVYNVERMVDIKMFGSVMIFIIMLWFIFLARILILGAIFNATYQEMSLGKLEGRSGDMIAILKKTLGNDSDLSPSQSIEDSHTD” the value was “failed”; for “MAELAANDIDSALRWLERAIDHDPEYSSAYAALGDIYQRTNDPVEADYCLRMALRCSPDSSEILHKLARNCVTLGNRSEALALLREAKDRHSGSVDFLSQLALIYDDLDETDLAICTWEEVIALNPLDASAHNNLGLQWHYGKGDVDKALDCFMRALQLNPCLTEARFNLYQAKADAGKVDEALAGFESMLAEPFREEVMFHRSIMLLKNRRFGEGWREYHLRWRYRGTQSRSFPFPNWDGQPCTGKTLLVYGEQGLGDEIMFASCLRDLHEKTGAKIVLECNTRLESLFRRSFPGITVIGRSSAQTSADGLASGATIDFQTAIGDLPGMFRAEEAAFPNHRGYLVADPKRVTFWKDRLAALGEGPKIGISWRGGQGKTRREARSIPLQEWHPILAAEGRHFVSLQYTDCRQELQALEEQHGIVIHHWQEAIDDYDETAALVMALDKVITVCTSIVHLTGALGRPAWVLVPRVPEWRYLASGETMPWYPSVRLFRQPRAGDWAPVLRDIAWKLGTVARRVDHDLG”, “failed”; for “MAELEAVADDLDALIDDLDYLPGHFHLEMQLNFEPRSPAPQRARDLKLQREGLRQELQLAAAPQRPAVRHLLGAFAFYLEELDEARECFLEVAHEHPGNLNAWANLAHVYGRLGQEEEEEACAARLADLMGLAEEPEAAGDPQLRAARCLAEQGYAHGFDVGCASPEERARGLAAGIALYDKALGYGQQIPMEEKRGWYFTMATLYIRLDGIFLELGSEEQKRLPAFNRTLALLRQVLKSEDPRHRALAWCYLGMLLERKDTFSTTPMGVHDCGYSGTDPLDCFGKAIEIAKNQPPILNRLAKIFYFLGKQDMAIGTCNMALDVLRDPELNWQAYCTRAKIHIRAYLHDLKRAKMGLGGMPDRNHLACAKADLEEVVRVCPGFKAYLDIGQVYYYMGVDAVQELLAVDEAALNQALVFLAKAGESELGATLPELQLLRGKCLRIKGEDANAAACFKRAVELDDAGSSHTDGFGCLLEALLAQWSQAQLSDGELGREVDAWLRRAQDKYPAARLRQELQRVWRGHTDEVLGLARALVAQGRPALVRLLFETMEREGEGASAPRDRRAVSF”, “failed”.

The values are drawn from a protein production outcome set (Wang et al. 2014).
